According to publication PMC12538437, “Branched DNA processing by a thermostable CAS-Cas4 from Thermococcus onnurineus: Expanding biochemical landscape of nuclease activity”:

Biological target: T1, TON_0321 (CAS-Cas4) (Thermococcus onnurineus NA1, UniProt B6YTB9 1-222)
T1 sequence: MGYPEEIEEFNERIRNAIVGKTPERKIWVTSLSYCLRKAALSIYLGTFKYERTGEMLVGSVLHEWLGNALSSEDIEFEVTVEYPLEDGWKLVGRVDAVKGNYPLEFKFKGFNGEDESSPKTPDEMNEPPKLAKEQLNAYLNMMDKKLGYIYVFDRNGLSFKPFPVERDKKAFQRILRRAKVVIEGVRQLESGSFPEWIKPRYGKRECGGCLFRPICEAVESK
Test: fluorescence anisotropy; 20 mM ZnSO4; 20 mM Tris-HCl pH 8.0, 100 mM NaCl, 0.5 mM DTT, 0.1 mg/ml BSA, 20 mM ZnSO4, 25 °C; 35 nM DNA (25 nM labeled), 0-1600 nM protein
Conditions: protein: recombinant; tags: N-terminal 6xHis (pET28a); label: 5' 6-FAM; single strand

ATTCTACCAGTGCCTTGCTAGGACATCTTTGCCCACCTGC (ssDNA) [ssDNA (Y0-1F)]: binds.
